Laboratory results: patent publication US20230002480A1

Experiments:
Test in all cases: cell-based or functional assay
[1] = biological target: HIV-1 Env of pseudovirus CAP210.2.00.E8 (HIV-1)
[2] = biological target: HIV-1 Env of pseudovirus Ce703010054_2A2 (HIV-1)
[3] = biological target: HIV-1 Env of pseudovirus Q259.d2.17 (HIV-1)
[4] = biological target: HIV-1 Env of pseudovirus R3265.c06 (HIV-1)
[5] = biological target: HIV-1 Env of pseudovirus 1056_10_TA11_1826 (HIV-1)
[6] = biological target: HIV-1 Env of pseudovirus R2184.c04 (HIV-1)
[7] = biological target: HIV-1 Env of pseudovirus ZM233M.PB6 (HIV-1)
[8] = biological target: HIV-1 Env of pseudovirus C3347.c11 (HIV-1)
[9] = biological target: HIV-1 Env of pseudovirus 235-47 (HIV-1)
[10] = biological target: HIV-1 Env of pseudovirus 6535.3 (HIV-1)
[11] = biological target: HIV-1 Env of pseudovirus T251-18 (HIV-1)
[12] = biological target: HIV-1 Env of pseudovirus 1054_07_TC4_1499 (HIV-1)
[13] = biological target: HIV-1 Env of pseudovirus Ce0682_E4 (HIV-1)
[14] = biological target: HIV-1 Env of pseudovirus 3301.v1.c24 (HIV-1)
[15] = biological target: HIV-1 Env of pseudovirus 620345.c01 (HIV-1)
[16] = biological target: HIV-1 Env of pseudovirus Q842.d12 (HIV-1)
[17] = biological target: HIV-1 Env of pseudovirus 246F C1G (HIV-1)
[18] = biological target: HIV-1 Env of pseudovirus 191084 B7-19 (HIV-1)
[19] = biological target: HIV-1 Env of pseudovirus X1193_c1 (HIV-1)
[20] = biological target: HIV-1 Env of pseudovirus 3817.v2.c59 (HIV-1)
[21] = biological target: HIV-1 Env of pseudovirus HIV-001428-2.42 (HIV-1)
[22] = biological target: HIV-1 Env of pseudovirus 0815.v3.c3 (HIV-1)
[23] = biological target: HIV-1 Env of pseudovirus REJO4541.67 (HIV-1)
[24] = biological target: HIV-1 Env of pseudovirus 3103.v3.c10 (HIV-1)
[25] = biological target: HIV-1 Env of pseudovirus 62357_14_D3_4589 (HIV-1)
[26] = biological target: HIV-1 Env of pseudovirus CNE58 (HIV-1)
[27] = biological target: HIV-1 Env of pseudovirus BJOX009000.02.4 (HIV-1)
[28] = biological target: HIV-1 Env of pseudovirus C1080.c03 (HIV-1)
[29] = biological target: HIV-1 Env of pseudovirus CNE8 (HIV-1)
[30] = biological target: HIV-1 Env of pseudovirus Du172.17 (HIV-1)
[31] = biological target: HIV-1 Env of pseudovirus CAAN5342.A2 (HIV-1)
[32] = biological target: HIV-1 Env of pseudovirus 249M B10 (HIV-1)
[33] = biological target: HIV-1 Env of pseudovirus 7030102001E5(Rev-) (HIV-1)
[34] = biological target: HIV-1 Env of pseudovirus X1254_c3 (HIV-1)
[35] = biological target: HIV-1 Env of pseudovirus Ce704809221_1B3 (HIV-1)
[36] = biological target: HIV-1 Env of pseudovirus Ce0393_C3 (HIV-1)
[37] = biological target: HIV-1 Env of pseudovirus HIV-16055-2.3 (HIV-1)

Question: Which results are given for PGT151 (antibody)?
Answer: IC50 [1]: 0.01 µg/mL; IC80 [1]: 0.208 µg/mL; IC50 [2]: 0.013 µg/mL; IC80 [2]: 0.075 µg/mL; IC50 [3]: > 50 µg/mL; IC80 [3]: > 50 µg/mL; IC50, titer in TZM.bl cells [4]: > 50 µg/mL; IC80, titer in TZM.bl cells [4]: > 50 µg/mL; IC50 [5]: 0.008 µg/mL; IC80 [5]: 0.048 µg/mL; IC50, titer in TZM.bl cells [6]: > 50 µg/mL; IC80, titer in TZM.bl cells [6]: > 50 µg/mL; IC50 [7]: 0.027 µg/mL; IC80 [7]: 5.16 µg/mL; IC50, titer in TZM.bl cells [8]: > 50 µg/mL; IC80, titer in TZM.bl cells [8]: > 50 µg/mL; IC50, titer in TZM.bl cells [9]: 38.1 µg/mL; IC80, titer in TZM.bl cells [9]: > 50 µg/mL; IC50 [10]: < 0.001 µg/mL; IC80 [10]: 0.012 µg/mL; IC50, titer in TZM.bl cells [11]: 0.327 µg/mL; IC80, titer in TZM.bl cells [11]: > 50 µg/mL; IC50 [12]: 0.008 µg/mL; IC80 [12]: 0.032 µg/mL; IC50 [13]: > 50 µg/mL; IC80 [13]: > 50 µg/mL; IC50, titer in TZM.bl cells [14]: 0.002 µg/mL; IC80, titer in TZM.bl cells [14]: 0.019 µg/mL; IC50, titer in TZM.bl cells [15]: > 50 µg/mL; IC80, titer in TZM.bl cells [15]: > 50 µg/mL; IC50 [16]: 0.001 µg/mL; IC80 [16]: 0.014 µg/mL; IC50 [17]: > 50 µg/mL; IC80 [17]: > 50 µg/mL; IC50 [18]: 0.004 µg/mL; IC80 [18]: 0.016 µg/mL; IC50, titer in TZM.bl cells [19]: 0.004 µg/mL; IC80, titer in TZM.bl cells [19]: 0.027 µg/mL; IC50, titer in TZM.bl cells [20]: > 50 µg/mL; IC80, titer in TZM.bl cells [20]: > 50 µg/mL; IC50 [21]: 0.027 µg/mL; IC80 [21]: > 50 µg/mL; IC50, titer in TZM.bl cells [22]: > 50 µg/mL; IC80, titer in TZM.bl cells [22]: > 50 µg/mL; IC50 [23]: 0.018 µg/mL; IC80 [23]: 0.119 µg/mL; IC50, titer in TZM.bl cells [24]: 0.014 µg/mL; IC80, titer in TZM.bl cells [24]: 0.202 µg/mL; IC50 [25]: 0.004 µg/mL; IC80 [25]: 0.023 µg/mL; IC50 [26]: 0.004 µg/mL; IC80 [26]: 0.016 µg/mL; IC50, titer in TZM.bl cells [27]: > 50 µg/mL; IC80, titer in TZM.bl cells [27]: > 50 µg/mL; IC50, titer in TZM.bl cells [28]: > 50 µg/mL; IC80, titer in TZM.bl cells [28]: > 50 µg/mL; IC50, titer in TZM.bl cells [29]: > 50 µg/mL; IC80, titer in TZM.bl cells [29]: > 50 µg/mL; IC50 [30]: 0.003 µg/mL; IC80 [30]: 0.013 µg/mL; IC50 [31]: 0.005 µg/mL; IC80 [31]: 0.038 µg/mL; IC50 [32]: 0.007 µg/mL; IC80 [32]: 0.023 µg/mL; IC50 [33]: 0.001 µg/mL; IC80 [33]: 0.011 µg/mL; IC50, titer in TZM.bl cells [34]: 0.309 µg/mL; IC80, titer in TZM.bl cells [34]: > 50 µg/mL; IC50 [35]: > 50 µg/mL; IC80 [35]: > 50 µg/mL; IC50 [36]: > 50 µg/mL; IC80 [36]: > 50 µg/mL; IC50 [37]: 0.143 µg/mL; IC80 [37]: > 50 µg/mL

Question: Which results are given for PGT145 (antibody)?
Answer: IC50 [1]: 37.8 µg/mL; IC80 [1]: > 50 µg/mL; IC50 [2]: > 50 µg/mL; IC80 [2]: > 50 µg/mL; IC50 [3]: 44.2 µg/mL; IC80 [3]: > 50 µg/mL; IC50, titer in TZM.bl cells [4]: 0.037 µg/mL; IC80, titer in TZM.bl cells [4]: 0.227 µg/mL; IC50 [5]: 0.23 µg/mL; IC80 [5]: 0.938 µg/mL; IC50, titer in TZM.bl cells [6]: 0.073 µg/mL; IC80, titer in TZM.bl cells [6]: 0.376 µg/mL; IC50 [7]: 0.025 µg/mL; IC80 [7]: 0.68 µg/mL; IC50, titer in TZM.bl cells [8]: 0.005 µg/mL; IC80, titer in TZM.bl cells [8]: 0.044 µg/mL; IC50, titer in TZM.bl cells [9]: 3.21 µg/mL; IC80, titer in TZM.bl cells [9]: 36 µg/mL; IC50 [10]: > 50 µg/mL; IC80 [10]: > 50 µg/mL; IC50, titer in TZM.bl cells [11]: 0.351 µg/mL; IC80, titer in TZM.bl cells [11]: 1.39 µg/mL; IC50 [12]: > 50 µg/mL; IC80 [12]: > 50 µg/mL; IC50 [13]: 33.6 µg/mL; IC80 [13]: > 50 µg/mL; IC50, titer in TZM.bl cells [14]: 0.219 µg/mL; IC80, titer in TZM.bl cells [14]: 4.22 µg/mL; IC50, titer in TZM.bl cells [15]: 0.241 µg/mL; IC80, titer in TZM.bl cells [15]: 19.7 µg/mL; IC50 [16]: 0.032 µg/mL; IC80 [16]: 0.552 µg/mL; IC50 [17]: > 50 µg/mL; IC80 [17]: > 50 µg/mL; IC50 [18]: 0.028 µg/mL; IC80 [18]: 0.345 µg/mL; IC50, titer in TZM.bl cells [19]: 0.013 µg/mL; IC80, titer in TZM.bl cells [19]: 0.091 µg/mL; IC50, titer in TZM.bl cells [20]: > 50 µg/mL; IC80, titer in TZM.bl cells [20]: > 50 µg/mL; IC50 [21]: 0.001 µg/mL; IC80 [21]: 0.083 µg/mL; IC50, titer in TZM.bl cells [22]: > 50 µg/mL; IC80, titer in TZM.bl cells [22]: > 50 µg/mL; IC50 [23]: < 0.001 µg/mL; IC80 [23]: 0.001 µg/mL; IC50, titer in TZM.bl cells [24]: 0.043 µg/mL; IC80, titer in TZM.bl cells [24]: 0.164 µg/mL; IC50 [25]: > 50 µg/mL; IC80 [25]: > 50 µg/mL; IC50 [26]: 0.183 µg/mL; IC80 [26]: 7.41 µg/mL; IC50, titer in TZM.bl cells [27]: 0.117 µg/mL; IC80, titer in TZM.bl cells [27]: 0.745 µg/mL; IC50, titer in TZM.bl cells [28]: 0.024 µg/mL; IC80, titer in TZM.bl cells [28]: 0.146 µg/mL; IC50, titer in TZM.bl cells [29]: 0.272 µg/mL; IC80, titer in TZM.bl cells [29]: 2.24 µg/mL; IC50 [30]: > 50 µg/mL; IC80 [30]: > 50 µg/mL; IC50 [31]: 6.67 µg/mL; IC80 [31]: 25.5 µg/mL; IC50 [32]: 0.947 µg/mL; IC80 [32]: 41.3 µg/mL; IC50 [33]: > 50 µg/mL; IC80 [33]: > 50 µg/mL; IC50, titer in TZM.bl cells [34]: 5.6 µg/mL; IC80, titer in TZM.bl cells [34]: > 50 µg/mL; IC50 [35]: 0.102 µg/mL; IC80 [35]: 0.71 µg/mL; IC50 [36]: 0.112 µg/mL; IC80 [36]: 1.23 µg/mL; IC50 [37]: 0.003 µg/mL; IC80 [37]: 0.051 µg/mL
